According to patent US20080044414A1 (published 2008):
Several values for one entry are separate records, joined by “and”; a condition that tells them apart may be missing. Identical values can stand only once. Like-named read-outs stand apart in the source and are kept apart here.

T1: dog IL-1β (dog, UniProt Q28292 115-266)
T1 sequence (looked up): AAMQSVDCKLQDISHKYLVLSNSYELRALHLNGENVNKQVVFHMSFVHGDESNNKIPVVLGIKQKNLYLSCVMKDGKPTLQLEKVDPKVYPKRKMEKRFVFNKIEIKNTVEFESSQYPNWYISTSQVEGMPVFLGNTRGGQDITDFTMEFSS

T2: rabbit IL-1β (rabbit, UniProt P14628 117-268)
T2 sequence (looked up): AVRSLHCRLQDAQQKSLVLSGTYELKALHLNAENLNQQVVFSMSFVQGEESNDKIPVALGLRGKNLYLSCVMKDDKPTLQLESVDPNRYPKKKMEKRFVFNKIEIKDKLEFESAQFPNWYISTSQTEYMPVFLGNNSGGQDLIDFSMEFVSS

T3: rhesus macaque IL-1β (rhesus macaque, UniProt P48090 117-269)
T3 sequence (looked up): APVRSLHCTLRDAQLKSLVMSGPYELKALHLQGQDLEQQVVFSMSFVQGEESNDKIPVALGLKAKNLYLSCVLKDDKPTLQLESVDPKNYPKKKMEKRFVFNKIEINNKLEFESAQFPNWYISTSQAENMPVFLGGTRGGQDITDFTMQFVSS

T4: soluble IL-1 receptor type I (IL-1 sRI) (UniProt P14778 18-336)
T4 construct: extracellular domain; also called IL-1RI
T4 sequence (looked up): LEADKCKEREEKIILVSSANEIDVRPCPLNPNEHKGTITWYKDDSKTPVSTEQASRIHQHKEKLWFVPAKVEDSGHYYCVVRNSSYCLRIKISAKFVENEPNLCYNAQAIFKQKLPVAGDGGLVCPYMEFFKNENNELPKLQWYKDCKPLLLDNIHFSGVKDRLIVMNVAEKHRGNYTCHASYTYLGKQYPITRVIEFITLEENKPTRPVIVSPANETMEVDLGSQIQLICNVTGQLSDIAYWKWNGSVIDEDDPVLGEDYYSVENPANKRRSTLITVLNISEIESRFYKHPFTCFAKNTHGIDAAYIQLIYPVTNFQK

T5: guinea pig IL-1β (guinea pig, UniProt Q9WVG1 115-266, limits assumed)
T5 sequence (looked up): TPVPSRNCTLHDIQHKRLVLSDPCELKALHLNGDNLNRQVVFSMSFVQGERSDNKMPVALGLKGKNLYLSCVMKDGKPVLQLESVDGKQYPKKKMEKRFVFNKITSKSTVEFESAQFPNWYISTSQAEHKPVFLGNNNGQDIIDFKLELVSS


Columns and labels:
human IL-1β [1] = target: T6, human IL-1β (human, UniProt P01584 117-269); test: cell-based or functional assay
human IL-1β [2] = target: T6, human IL-1β; test: cell-based or functional assay; remark: listed apart in the source
human IL-1β [3] = target: T6, human IL-1β; test: KinExA kinetic exclusion assay
Excerpt: The KINEXA™ device performs a kinetic exclusion assay, and fits the data to various theoretical curves and thus determines KD as well as other properties, such as 95% confidence intervals for KD. The KINEXA™ device is generally more sensitive than other devices (e.g., a BiaCore device) for analysis of affinity characteristics such as dissociation constants and off-rates.

human IL-1β [4] = target: T6, human IL-1β; test: KinExA kinetic exclusion assay; remark: listed apart in the source
Experimental: KD values represent the binding dissociation constants for the respective antibody-IL-1β complexes. KD was calculated as the ratio of “off rate” (rate of dissociation for the antibody-IL-1β complex) to “on rate” (rate of association for the antibody-IL-1β complex).

human IL-1β [5] = target: T6, human IL-1β; test: cell-based or functional assay; remark: listed apart in the source
dog IL-1β = target: T1, dog IL-1β; test: immunoprecipitation with AB7 from LPS-stimulated PBMC supernatant, Western blot with AB7 (FIG. 16)
Experimental: (§1) Fresh heparanized whole blood from rhesus macaque, cynomolgus monkey, dog, guinea pig and rabbit was obtained from Charles River Labs. The whole blood was separated by Ficoll density gradient centrifugation and peripheral blood mononuclear cells (PBMC's) were isolated. For each species' PBMC, 2.5×10⁵ cells/ml were incubated in peripheral RPMI media with and without 50 ng/ml Lipopolysaccharide LPS (E. Coli 055:B5), and supernatants were collected at 24 hours post-stimulation. LPS is intended to stimulate the production of IL-1β by the PBMC's. […] Human IL-1β (Peprotech) was spiked into RPMI and run as immunoprecipliation/Western blot controls. After centrifugation and washing of the Protein A-Sepharose beads, all samples were loaded onto a SDS-PAGE gel and run at 120V for 1 hour. […] A secondary goat anti-human IgG antibody conjugated with horseradish peroxidase (HRP) was added following wash steps and detection was with one step tetramethyl benzidine (TMB) solution.

rabbit IL-1β = target: T2, rabbit IL-1β; test: as above
Experimental: as §1

rhesus macaque IL-1β = target: T3, rhesus macaque IL-1β; test: cell-based or functional assay
[6] = target: T4, soluble IL-1 receptor type I (IL-1 sRI); test: Biacore, AB7 immobilized on CM-5 chip, IL-1 sRI injected
Experimental: Using HBS-EP (Biacore®, Inc.) as running buffer, the temperature was set to 25° C., the flow rate was set to 10 μL/min, and the flow path was directed to flow cell 2 only. 135 μL of each of NHS and ECD solutions (Biacore®, Inc.) were mixed, and 70 μL of the NHS/ECD solution was immediately injected in the flow path. […] To prepare a reference surface, the flow path was changed to flow cell 1 only. 135 μL of each of NHS and ECD solutions (Biacore®, Inc.) were mixed, and 70 μL of the NHS/ECD solution was immediately injected in the flow path, followed by 70 μL 1M Ethanolamine (Biacore®, Inc.).
The flow rate was set to 10 μL/min. The flow path for the Biacore® instrument was set to flow cells 1 and 2, and reference subtraction of flowcell 2 from flowcell 1 was used to determine a response differential.

guinea pig IL-1β = target: T5, guinea pig IL-1β; test: immunoprecipitation with AB7 and protein A-Sepharose from PBMC supernatant, Western blot with AB7
Experimental: as §1

Binder	IC50, inhibition of IL-1β stimulated release of IL-6 from human MRC5 fibroblasts (human IL-1β [1])	Kd (human IL-1β [4])	IC50, inhibition of IL-1β stimulated release of IL-6 from human fibroblasts (FIG. 10) (human IL-1β [5])	IC50 of an individual assay, IL-6 release from human fibroblasts (human IL-1β [5])	mean IC50, inhibition of IL-1β stimulated release of IL-6 from human fibroblasts (human IL-1β [5])	further results
AB5 (antibody, V domains shown, also called AB5 (invention)) VH: QVTLKESGPGILKPSQTLSLTCSFSGFSLSTSGMGVGWIRQPSGKGLEWLAHIWWDGDESYNPSLKTQLTISKDTSRNQVFLKITSVDTVDTATYFCARNRYDPPWFVDWGQGTLVTVSS VL: DIQMTQTTSSLSASLGDRVTISCRASQDISNYLSWYQQKPDGTVKLLIYYTSKLHSGVPSRFSGSGSGTDYSLTISNLEQEDIATYFCLQGKMLPWTFGGGTKLEIK	0.014 nM	0.000261 nM				IC50, inhibition of IL-1β stimulated release of IL-6 from human fibroblasts (human IL-1β [2]): 0.0049 nM; Kd (human IL-1β [3]): 0.00024 nM
AB3 (antibody, V domains shown) VH: QVTLKESGPGILKPSQTLSLTCSFSGFSLSTSGMGVGWIRQPSGKGLEWLAHIWWDGDESYNPSLKTQLTISKDTSRNQVFLKITSVDTVDTATYFCARFRYDPPWFVDWGQGTLVTVSS VL: DIQMTQTTSSLSASLGDRVTISCRASQDISNYLSWYQQKPDGTVKLLIYYTSKLHSGVPSRFSGSGSGTDYSLTISNLEQEDIATYFCLQGKMLPWTFGGGTKLEIK			0.214 nM			
AB2 (antibody, V domains shown) VH: QVTLKESGPGILKPSQTLSLTCSFSGFSLSTSGMGVGWIRQPSGKGLEWLAHIWWDGDESYNPSLKTQLTISKDTSRNQVFLKITSVDTVDTATYFCARVRYDPPWFVDWGQGTLVTVSS VL: DIQMTQTTSSLSASLGDRVTISCRASQDISNYLSWYQQKPDGTVKLLIYYTSKLHSGVPSRFSGSGSGTDYSLTISNLEQEDIATYFCLQGKMLPWTFGGGTKLEIK			0.076 nM			
AB-control (antibody, V domains shown, must be checked against the listing) VH: QVTLKESGPGILKPSQTLSLTCSFSGFSLSTSGMGVGWIRQPSGKGLEWLAHIWWDGDESYNPSLKTRLTISKNTSRNQVFLKITTVDTVDTATYFCARNRYDPPWFVDWGQGTLVTVSS VL: DIQMTQTTSSLSASLGDRVTISCRASQDISNYLSWYQQKPDGTVKLLIYYTSKLHSGVPSRFSGSGSGTDYFLTISNLEQEDIATYFCLQGKMLPWTFGGGTKLEIK	0.017 nM	0.00306 nM		0.005 nM and 0.0049 nM	0.0089 nM	
AB1 (antibody, V domains shown, also called AB1 (invention)) VH: QVTLKESGPGILKPSQTLSLTCSFSGFSLSTSGMGVGWIRQPSGKGLEWLAHIWWDGDESYNPSLKTQLTISKDTSRNQVFLKITSVDTVDTATYFCARARYDPPWFVDWGQGTLVTVSS VL: DIQMTQTTSSLSASLGDRVTISCRASQDISNYLSWYQQKPDGTVKLLIYYTSKLHSGVPSRFSGSGSGTDYSLTISNLEQEDIATYFCLQGKMLPWTFGGGTKLEIK	0.15 nM	0.0186 nM	0.029 nM	0.035 nM and 0.03 nM and 0.052 nM	0.0667 nM	
AB7 (antibody, V domains shown, Human engineered antibody) VH: QVQLQESGPGLVKPSQTLSLTCSFSGFSLSTSGMGVGWIRQPSGKGLEWLAHIWWDGDESYNPSLKSRLTISKDTSKNQVSLKITSVTAADTAVYFCARNRYDPPWFVDWGQGTLVTVSS VL: DIQMTQSTSSLSASVGDRVTITCRASQDISNYLSWYQQKPGKAVKLLIYYTSKLHSGVPSRFSGSGSGTDYTLTISSLQQEDFATYFCLQGKMLPWTFGQGTKLEIK						binding result (dog IL-1β): binds; binding result (rabbit IL-1β): binds; mean IC50, inhibition of IL-1β stimulated proliferation of D10.G4.1 cells (10 pg/ml recombinant rhesus IL-1β) (rhesus macaque IL-1β): 0.0027 nM; binding result [6]: no binding (tested: 10 ug/mL); binding result (guinea pig IL-1β): no binding
